# Reference: US7432244 (dated 2008)
# Bridge positions count the residues as written; N and C are the ends. Ends that are not written are not given here.
# Biological target: T1, IGF-1 (human, UniProt P05019)
# Assay: competition phage ELISA
# T1 sequence (P05019 49-118): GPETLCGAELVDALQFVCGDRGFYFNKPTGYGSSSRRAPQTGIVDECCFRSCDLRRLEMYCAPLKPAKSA
row,Binder,IC50
1,VRCAYDAGGSRYCWE [F2-B],24.6 µM
2,LRCAEDLGGYFYCWA [F2-J],2.12 µM
3,RNCFESVAALRRCMY [F1-C],0.108 µM
4,FGCYESVAALRTCMY [F1-B],0.301 µM
5,ARCARDAGGFYYCWA [F2-L],4.36 µM
6,HPCLESVGALKACMY [F1-A],0.401 µM
7,WRCAQDAGGWTYCWA [F2-M],1.04 µM
8,MDCLASVEALKWCMY [F1-H],0.147 µM
9,SDCFESVEALRACMY [F1-G],0.968 µM
10,SDCFGSVEALKMCMY [F1-E],0.711 µM
11,HDCFASVEALRRCMY [F1-D],0.468 µM
12,LGCASDLAGFWYCWA [F2-E],0.554 µM
13,WRCVDDLGGFQYCWA [F2-H],0.319 µM
14,VKCARDLSGFVYCWA [F2-C],10000 µM
15,FECLTSVEALRGCMY [F1-F],0.286 µM
16,ASCVADAGGGGYCWD [F2-G],0.986 µM
17,VRCAWDLGGRAYCWA [F2-D],249 µM
18,FRCAWELGWLYVLGL [F2-F],209 µM
19,VTCAADALGFLYCWE [F2-I],1.03 µM
20,VRCVADAGGFLYCWA [F2-N],1.18 µM
21,YRCATDLAGFSYCWA [F2-K],1.45 µM
22,GGCASDLAGFRYCWE [F2-A],1.33 µM

# Biological target: T1, IGF-1
# Assay: competition, IGF-1 phage vs IGFBP-3
row,Binder,IC50
1,RNCFESVAALRRCMYG (disulfide 3-13 (inferred)) [F1-1],2.93 µM
2,FECLTSVEALRGCMYG (disulfide 3-13 (inferred)) [F1-3],12.8 µM
3,MDCLASVEALKWCMYG (disulfide 3-13 (inferred)) [F1-2],9.2 µM

# Biological target: T1, IGF-1
# Assay: competition, IGF-1 phage vs IGFBP-1
row,Binder,IC50
1,RNCFESVAALRRCMYG (disulfide 3-13 (inferred)) [F1-1],1.4 µM
2,FECLTSVEALRGCMYG (disulfide 3-13 (inferred)) [F1-3],11.7 µM
3,MDCLASVEALKWCMYG (disulfide 3-13 (inferred)) [F1-2],15.5 µM

# Biological target: T1, IGF-1
# Assay: competition, 125I-IGF-1 binding to MCF-7 cells, 37C
row,Binder,IC50
1,RNCFESVAALRRCMYG (disulfide 3-13 (inferred)) [F1-1],5.12 µM
2,FECLTSVEALRGCMYG (disulfide 3-13 (inferred)) [F1-3],45.7 µM
3,MDCLASVEALKWCMYG (disulfide 3-13 (inferred)) [F1-2],15.3 µM
